According to patent US20210009693A1 (MABSPACE BIOSCIENCES SUZHOU, published 2021):
Changes are numbered by the printed parent chain. In names and notes the source's numbering stands. Each block holds one binder with its values, some of them ahead of it.

Assays:
[1] = target: T1, human PD-L1 expressed on cells (human, UniProt Q9NZQ7 19-290); assay: flow cytometry (relative mean fluorescence) on human peripheral blood cells activated 3 days with anti-CD3 and anti-CD28; detection with anti-human IgG-APC
T1 construct: whole, on cells; also called hPD-L1 expressed on HCC827; hPD-L1 on MC38/hPD-L1 cells

[2] = target: T2, Recombinant Human PD-L1/CD274 Protein (hPD-L1-his) (human, UniProt Q9NZQ7 19-238); assay: ELISA on coated hPD-L1-his; bound at pH7.4, then 2 h at pH5.5
T2 construct: range 19-238; ACRO Biosystem PD1-H5229, made in HEK293; also called human PD-L1-his; hPD-L-his
Procedure: The pH-dependent binding affinity was further measured at various pH values, such as pH4, pH4.5, pH5.0, pH5.5, pH6.0, pH7.4. The measurement by ELISA was conducted similarly to the method described above. High-binding clear polystyrene 96 well plates were coated with 100 μl/well of a 0.5 μg/ml hPD-L1-his in high pH coating buffer and incubated overnight at 4° C. Then the coated plates were washed 3 times with shaking for 10s on an automatic plate washer with PBS+0.1% Tween 20 (Amresco). Then 200 μl of blocking buffer (1% BSA (Solarbio)+1% normal goat serum (Solarbio)+0.05% Tween 20 (Amresco)) was added to each well and the plates were then incubated for 2 hours at room temperature and washed 3 times as above. […] The plates were then washed once with 250 μl/well washing buffer at pH7.4, pH6.0, pH5.5, pH5.0, pH4.5 or pH4.0 and then 100 μl/well pH7.4 or pH5.5 washing buffer was added and the incubation was continued for 2 hours at RT with shaking. Afterwards, the plates was washed 3 times washing buffer at pH7.4 and 100 μl/well of a solution of HRP conjugated goat anti-hIgG HRP antibody (1:20000, Abcam) in pH7.4 dilution buffer was then added to each well of the plate. After that the plates were allowed to incubate for 60 min at room temperature followed by washing 3 times with 250 μl/well pH7.4 washing buffer. […] The plates were read on a Thermo Multiscan FC at 450 nm (see FIG. 23A-23F). […]

[3] = target: T2, Recombinant Human PD-L1/CD274 Protein …; assay: ELISA, coated hPD-L1-his, acidic wash and incubation after binding at pH7.4
Procedure: (§1) The pH-dependent binding affinity was further measured at various pH values, such as pH4, pH4.5, pH5.0, pH5.5, pH6.0, pH7.4. The measurement by ELISA was conducted similarly to the method described above. High-binding clear polystyrene 96 well plates were coated with 100 μl/well of a 0.5 μg/ml hPD-L1-his in high pH coating buffer and incubated overnight at 4° C. Then the coated plates were washed 3 times with shaking for 10s on an automatic plate washer with PBS+0.1% Tween 20 (Amresco). Then 200 μl of blocking buffer (1% BSA (Solarbio)+1% normal goat serum (Solarbio)+0.05% Tween 20 (Amresco)) was added to each well and the plates were then incubated for 2 hours at room temperature and washed 3 times as above. […] The plates were then washed once with 250 μl/well washing buffer at pH7.4, pH6.0, pH5.5, pH5.0, pH4.5 or pH4.0 and then 100 μl/well pH7.4 or pH5.5 washing buffer was added and the incubation was continued for 2 hours at RT with shaking. Afterwards, the plates was washed 3 times washing buffer at pH7.4 and 100 μl/well of a solution of HRP conjugated goat anti-hIgG HRP antibody (1:20000, Abcam) in pH7.4 dilution buffer was then added to each well of the plate. After that the plates were allowed to incubate for 60 min at room temperature followed by washing 3 times with 250 μl/well pH7.4 washing buffer. Finally, 100 μl/well of TMB was added to each well for 15 min and the reaction was terminated using 50 μl/well of 0.16M/L sulfuric acid. The plates were read on a Thermo Multiscan FC at 450 nm (see FIG. 23A-23F). The measurements were performed in triplicate.

[4] = target: T1, human PD-L1 expressed on cells; assay: blocking FACS on HCC827 cells; blocked ligand: biotinylated hPD-1-N297A
Procedure: Log phase IFN-γ stimulated (500U/ml for 2 days) HCC827 cells were collected and resuspended in blocking buffer (5% BSA+PBS). 2×10\hat{ }5 cells were added to each tube and then washed once with PBS (1500 rpm, 5 mins, RT). […] After washing for three times with PBS, 100 μl/tube streptavidin-PE 1:200 in blocking buffer was added to each tube. The cells were incubated at 4° C. for 1 hr and then washed twice with PBS, followed by resuspending cells in 150 μl PBS for each sample. The cells were then transferred into FACS tube and the binding of the antibodies to the cells were detected with flow cytometry (ACEA Bioscience Novocyte) (see FIGS. 20A and 20B).

[5] = target: hPD-L1 (antigen of the Biacore assay) (human, UniProt Q9NZQ7 19-238, limits assumed); assay: SPR (Biacore), antibody captured on anti-human Fc, antigen in flow
In short: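 Antibody captured to 200–300 RU on an anti-human Fc CM5 surface, with an uncaptured flow cell as reference; antigen injected at varying concentrations, 180 s association, in HBS-EP pH 7.4. Regeneration with glycine pH 1.5 for 120 s; reference-subtracted signals evaluated.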

[6] = target: T2, Recombinant Human PD-L1/CD274 Protein …; assay: ELISA on coated hPD-L1-his
[7] = target: T3, wild type human PD-L1-Fc protein (SEQ ID NO: 107) (human); assay: ELISA on captured PD-L1-Fc, as in Example 18A
T3 construct: Extracellular human PD-L1 (amino acid 19-238) with Fc fragment of human IgG1, expressed in 293T cells and used as culture supernatant; also called WT PD-L1; wild-type PD-L1

[8] = target: T4, human PD-L1-Fc mutant E58A (human); assay: ELISA on captured PD-L1-Fc, as in Example 18A
T4 construct: Position 58 counts on native human PD-L1 (NP_054862.1); also called E58A mutant

[9] = target: T2, Recombinant Human PD-L1/CD274 Protein …; assay: ELISA on coated hPD-L1-his; bound at pH7.4, then 2 h at pH7.4
Procedure: as §1

[10] = target: T5, Human PD-L1/CD274 with C-Fc Tag (hPD-L1-Fc) (human, UniProt Q9NZQ7 19-238); assay: blocking ELISA on coated hPD-L1-Fc; blocked ligand: biotinylated hPD-1-N297A
T5 construct: range 19-238; ACRO Biosystem PD1-H5258, made in HEK293; also called human PD-L1-Fc; not shown: Fc fragment of human IgG1 at C-terminus

[11] = target: T2, Recombinant Human PD-L1/CD274 Protein …; assay: ELISA on coated hPD-L1-his; bound at pH7.4, then 2 h at pH5.5; remark: listed apart in the source
[12] = target: T2, Recombinant Human PD-L1/CD274 Protein …; assay: ELISA on coated hPD-L1-his; bound at pH7.4, then 2 h at pH7.4; remark: listed apart in the source
[13] = target: T5, Human PD-L1/CD274 with C-Fc Tag …; assay: blocking ELISA on coated hPD-L1-Fc; blocked ligand: biotinylated hPD-1-Fc-N297A
Procedure: High-binding clear polystyrene 96 well plates (Nunc) were coated with 100 μl/well of coating solution consisting of 0.5 μg/ml hPD-L1-Fc overnight at 4° C. Then washed once on an automatic plate washer using washing buffer PBS+0.1% Tween 20 (Sigma). 200 μl of blocking buffer (PBS+1% BSA+1% normal goat serum+0.05% Tween-20) was added to each well and incubated for 2 hours at room temperature. Then add serial diluted antibodies (from 10 μg/ml to 0.0006 μg/ml) with dilution buffer (PBS+1% BSA+1% normal goat serum+0.01% Tween-20) and incubate for 1 hour at RT. The plates were then washed 3 times using the method described above. […] After the plates were washed 3 times, 100 μl/well of a solution of HRP conjugated Neutravidin antibody (Pierce) diluted in dilution buffer was then added to each well of the plate. After that the ELISA plates were allowed to incubate for 60 min at RT then plates were washed 3 times with 250 μl/well washing buffer. Finally, 100 μl/well of TMB was added to each well and reaction was terminated using 0.64M H₂SO₄. The plates were read on a Thermo Multiscan FC at 450 nM (see FIG. 4A).

[14] = target: T3, wild type human PD-L1-Fc protein (SEQ …); assay: ELISA on hPD-L1-Fc captured from 293T supernatant, 0.5 ug/ml antibody
[15] = target: T6, Recombinant Mouse PD-L1/CD274 Protein (mPD-L1-his) (mouse, UniProt Q9EP73 19-238); assay: ELISA, 20 ug/ml antibody on coated mouse PD-L1 (his-tagged per text, mPD-L1-Fc per sheet title)
T6 construct: range 19-238; ACRO Biosystem PD1-M5220; also called mouse PD-L1-his
In short: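 Wells coated overnight at 4 °C with 1 μg/ml mouse PD-L1-his, blocked 2 h with BSA/goat serum buffer; purified hybridoma mouse antibodies at 20 μg/ml bound 1 h at RT. Detection by HRP goat anti-mouse Fc (60 min, RT), TMB, acid stop, absorbance at 450 nm.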

T1 sequence (Q9NZQ7 19-290): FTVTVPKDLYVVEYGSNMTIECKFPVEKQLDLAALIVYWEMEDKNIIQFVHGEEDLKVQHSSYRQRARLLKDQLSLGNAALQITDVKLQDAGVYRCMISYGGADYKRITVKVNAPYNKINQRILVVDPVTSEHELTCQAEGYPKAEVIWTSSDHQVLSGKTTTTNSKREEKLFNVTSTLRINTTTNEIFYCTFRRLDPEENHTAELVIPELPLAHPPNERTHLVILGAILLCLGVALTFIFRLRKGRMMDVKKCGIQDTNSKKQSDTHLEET
T2 sequence (Q9NZQ7 other isoform, or with tags, fused parts or gaps limits assumed): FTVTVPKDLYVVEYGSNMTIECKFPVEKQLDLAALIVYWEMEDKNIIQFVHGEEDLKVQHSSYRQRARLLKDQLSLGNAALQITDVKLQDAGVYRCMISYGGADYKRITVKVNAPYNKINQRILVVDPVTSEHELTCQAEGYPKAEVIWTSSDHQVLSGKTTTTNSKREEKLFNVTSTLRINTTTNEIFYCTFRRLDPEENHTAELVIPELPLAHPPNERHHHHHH
T4 sequence (chain, as listed by the source E58A E58A limits assumed): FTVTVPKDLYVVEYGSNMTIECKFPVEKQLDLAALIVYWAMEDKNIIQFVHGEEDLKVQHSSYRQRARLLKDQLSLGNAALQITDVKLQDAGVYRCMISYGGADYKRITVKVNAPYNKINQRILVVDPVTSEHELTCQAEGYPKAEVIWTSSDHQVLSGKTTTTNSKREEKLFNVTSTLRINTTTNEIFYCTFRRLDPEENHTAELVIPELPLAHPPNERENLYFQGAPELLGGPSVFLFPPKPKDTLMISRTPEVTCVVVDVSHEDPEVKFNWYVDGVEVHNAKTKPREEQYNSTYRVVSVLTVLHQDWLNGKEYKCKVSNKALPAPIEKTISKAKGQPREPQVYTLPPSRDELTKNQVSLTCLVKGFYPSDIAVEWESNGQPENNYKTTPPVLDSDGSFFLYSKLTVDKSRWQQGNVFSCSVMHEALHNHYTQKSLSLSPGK
hPD-L1 (antigen of the Biacore assay), sequence (Q9NZQ7 19-238 limits assumed): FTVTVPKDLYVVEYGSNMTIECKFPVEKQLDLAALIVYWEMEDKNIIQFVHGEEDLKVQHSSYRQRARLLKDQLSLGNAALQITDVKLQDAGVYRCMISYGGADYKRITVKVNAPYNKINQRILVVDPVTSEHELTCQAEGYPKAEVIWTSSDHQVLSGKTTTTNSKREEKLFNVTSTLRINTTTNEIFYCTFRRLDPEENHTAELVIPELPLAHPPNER
T3 sequence (chain, as listed by the source limits assumed): as the sequence (chain, as listed by the source E58A E58A limits assumed) above, with A40E counted along it
T5 sequence (Q9NZQ7 19-238 limits assumed): as the sequence (Q9NZQ7 19-238 limits assumed) above
T6 sequence (Q9EP73 other isoform, or with tags, fused parts or gaps limits assumed): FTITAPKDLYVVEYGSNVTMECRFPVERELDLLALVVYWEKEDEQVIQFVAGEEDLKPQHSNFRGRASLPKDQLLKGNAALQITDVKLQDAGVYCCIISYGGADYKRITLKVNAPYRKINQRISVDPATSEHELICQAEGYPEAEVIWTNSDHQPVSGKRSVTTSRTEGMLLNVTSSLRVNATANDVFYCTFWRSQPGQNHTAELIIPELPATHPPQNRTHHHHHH

- EC50 [1]: 0.0305 µg/mL
- EC50 (read off the curve) [2]: ~0.01 µg/mL
- binding signal at pH5 as percent of the signal at pH7.4 [3]: < 50%
- binding signal at pH5.5 as percent of the signal at pH7.4 [3]: < 75%
- IC50 (read off the curve) [4]: ~0.03 µg/mL
- Kd [5]: 65.4 nM
- koff [5]: 0.0304 s⁻¹
- kon [5]: 465000 M⁻¹ s⁻¹
- EC50 (read off the curve) [6]: ~0.001 µg/mL
- Mean OD450 [7]: 1.25 OD450
- OD450 nM of sample-1 [7]: 1.18 OD450
- OD450 nM of sample-2 [7]: 1.33 OD450
- % of binding of Ab to E58A mutant vs. that to WT PD-L1 [8]: 9.2%
- Mean OD450 [8]: 0.116 OD450
- OD450 nM of sample-1 [8]: 0.129 OD450
- OD450 nM of sample-2 [8]: 0.103 OD450
- EC50 (read off the curve) [9]: ~0.007 µg/mL
- IC50 (read off the curve) [10]: ~0.03 µg/mL
B1: 23F11-H4L4 (antibody, V domains shown)
VH: QVQLVQSGAEVKKPGASVKLSCKASGYIFTTYWMHWVKQRPGQGLEWIGMIQPNSGGTKYNEKFKKKATLTVDKSISTAYMELSRLTSDDTAVYYCARGAGTVDYFDYWGQGSTLTVSS
VL: DIVLTQSPASLAVSVGQRATITCRASESVDIYGNSFMHWYQQKPGQPPKLLIYRASNLESGIPARFSGSGSRTDFTLTINPVEANDTATYYCQQSTEDPYTFGGGTKLEIK
notes: Human IgG1 constant region with N297A; biotinylated in the alanine-scan ELISA; also called 23F11-H4L4-bio; humanized 23F11

- EC50 (read off the curve) [11]: ~0.009 µg/mL
- IC50 (read off the curve) [4]: ~0.06 µg/mL
- EC50 (read off the curve) [12]: ~0.008 µg/mL
B2: 23F11-H4L4 (produced in CHO cells) (antibody, V domains shown)
VH: B1 VH
VL: B1 VL with N85Q
notes: also called 23F11-H4L4 (CHO cell derived); 23F11 H4L4 CHO

- IC50 (read off the curve) [13]: ~0.2 µg/mL
- binding result [14]: binds
- binding result [15]: no binding (tested: 20 ug/ml)
B3: 21F11 (antibody, V domains shown)
VH: QVQLQQPGAELVKPGASVKLSCKASGYTFTSNWMHWVKQRPGQGLEWIGMMHPNSGSINYNEKFKNKATLTADKSSSTAYMQLSSLTSEDSAVYYCARSYYGSSPYYFDYWGQGTTLTVSS
VL: DIQMTQTTSSLSASLGDRVTISCRASQDISNYLNWYQQKPDGTVKLLIYYTSRLHSGVPSRFSGSGSGTDFSLTISNLEEEDIATYFCQQGDTLPWTFGGGTKLEIK
notes: Mouse monoclonal from hybridoma; also called mouse monoclonal antibody 21F11
